Usually stoichiometry N stands for a count of units in the complex or per binding partner.

Test [1] addresses GMPCPP- and Taxol-stabilised TAMRA-labelled microtubules of porcine brain tubulin (porcine) (UniProt P02550). The test is described as follows: TIRF microscopy binding assay; 1 nM GFP-augmin on surface-attached TAMRA-microtubules with importin α, importin β (25-400 nM) or importin α/β (25-100 nM each), with or without 3.5 μM RanQ69L; BRB80 binding buffer; 30°C.
Test [2] has as its target recombinant human augmin complex (GFP-augmin), all eight full-length subunits HAUS1-HAUS8 (human) (UniProt Q96CS2). The test is described as follows: single-molecule TIRF fluorescence intensity analysis; GFP-augmin particles diffusing on microtubules; particle intensity divided by the intensity of single mGFP-augmin particles (photobleaching experiment). The note with it: remark: other sources report otherwise.

In test [1], “recombinant human augmin complex (GFP-augmin), all eight full-length subunits HAUS1-HAUS8 (from UniProt Q96CS2-1 1-278; Q9NVX0-1 1-235; Q68CZ6-1 1-603; Q9H6D7-1 1-363; O94927-1 1-633; Q7Z4H7-1 1-955; Q99871-1 1-358; Q9BT25-1 1-410)” yielded a median background-corrected fluorescence intensity on microtubules with 100 nM importin α/β and 3.5 µM RanQ69L of 338; a median background-corrected fluorescence intensity on microtubules with 400 nM importin β and 3.5 µM RanQ69L of 273; a median background-corrected fluorescence intensity on microtubules, control without importin of 321.

Take “recombinant human augmin complex (GFP-augmin), all eight full-length subunits HAUS1-HAUS8, Q96CS2-1 1-278; Q9NVX0-1 1-235; Q68CZ6-1 1-603; Q9H6D7-1 1-363; O94927-1 1-633; Q7Z4H7-1 1-955; Q99871-1 1-358; Q9BT25-1 1-410”: the stoichiometry N in test [2] is less than 10.

The values are drawn from publication PMC10323247.
